{"source": "patent US10377818B2", "about": "“Method of treating glioma” (The Board of Trustees of the Leland Stanford Junior …, priority 2015, dated 2019)", "system": "SU-pcGBM2 cells", "test": "EdU incorporation assay, proliferation index of pHGG cells (SU-pcGBM2)", "assay_type": "cell-based, human"}
{"molecule": "NLGN2: Recombinant soluble neuroligin-2 (protein, UniProt Q8NFZ4 15-677, looked up, extracellular domain) extracellular domain: QRGGGGPGGGAPGGPGLGLGSLGEERFPVVNTAYGRVRGVRRELNNEILGPVVQFLGVPYATPPLGARRFQPPEAPASWPGVRNATTLPPACPQNLHGALPAIMLPVWFTDNLEAAATYVQNQSEDCLYLNLYVPTEDGPLTKKRDEATLNPPDTDIRDPGKKPVMLFLHGGSYMEGTGNMFDGSVLAAYGNVIVATLNYRLGVLGFLSTGDQAAKGNYGLLDQIQALRWLSENIAHFGGDPERITIFGSGAGASCVNLLILSHHSEGLFQKAIAQSGTAISSWSVNYQPLKYTRLLAAKVGCDREDSAEAVECLRRKPSRELVDQDVQPARYHIAFGPVVDGDVVPDDPEILMQQGEFLNYDMLIGVNQGEGLKFVEDSAESEDGVSASAFDFTVSNFVDNLYGYPEGKDVLRETIKFMYTDWADRDNGEMRRKTLLALFTDHQWVAPAVATAKLHADYQSPVYFYTFYHHCQAEGRPEWADAAHGDELPYVFGVPMVGATDLFPCNFSKNDVMLSAVVMTYWTNFAKTGDPNQPVPQDTKFIHTKPNRFEEVVWSKFNSKEKQYLHIGLKPRVRDNYRANKVAFWLELVPHLHNLHTELFTTTTRLPPYATRWPPRPPAGAPGTRRPPPPATLPPEPEPEPGPRAYDRFPGDSRDYSTELS", "values": [{"measurement": "effect on pHGG cell proliferation", "setting": "recombinant NLGN2 at 1, 10 or 100 nM for 24 hours", "value": "No effect of NLGN2 on pHGG cell proliferation was observed"}]}
{"molecule": "brevican: Recombinant candidate protein from proteomic analyses of cortical slice conditioned media (protein, UniProt Q96GW7 23-911, looked up) Brevican core protein: DVLEGDSSEDRAFRVRIAGDAPLQGVLGGALTIPCHVHYLRPPPSRRAVLGSPRVKWTFLSRGREAEVLVARGVRVKVNEAYRFRVALPAYPASLTDVSLALSELRPNDSGIYRCEVQHGIDDSSDAVEVKVKGVVFLYREGSARYAFSFSGAQEACARIGAHIATPEQLYAAYLGGYEQCDAGWLSDQTVRYPIQTPREACYGDMDGFPGVRNYGVVDPDDLYDVYCYAEDLNGELFLGDPPEKLTLEEARAYCQERGAEIATTGQLYAAWDGGLDHCSPGWLADGSVRYPIVTPSQRCGGGLPGVKTLFLFPNQTGFPNKHSRFNVYCFRDSAQPSAIPEASNPASNPASDGLEAIVTVTETLEELQLPQEATESESRGAIYSIPIMEDGGGGSSTPEDPAEAPRTLLEFETQSMVPPTGFSEEEGKALEEEEKYEDEEEKEEEEEEEEVEDEALWAWPSELSSPGPEASLPTEPAAQEESLSQAPARAVLQPGASPLPDGESEASRPPRVHGPPTETLPTPRERNLASPSPSTLVEAREVGEATGGPELSGVPRGESEETGSSEGAPSLLPATRAPEGTRELEAPSEDNSGRTAPAGTSVQAQPVLPTDSASRGGVAVVPASGDCVPSPCHNGGTCLEEEEGVRCLCLPGYGGDLCDVGLRFCNPGWDAFQGACYKHFSTRRSWEEAETQCRMYGAHLASISTPEEQDFINNRYREYQWIGLNDRTIEGDFLWSDGVPLLYENWNPGQPDSYFLSGENCVVMVWHDQGQWSDVPCNYHLSYTCKMGLVSCGPPPELPLAQVFGRPRLRYEVDTVLRYRCREGLAQRNLPLIRCQENGRWEAPQISCVPRRPARALHPEEDPEGRQGRLLGRWKALLIPPSSPMPGP", "values": [{"measurement": "effect on proliferation index relative to aCSF control", "setting": "recombinant candidate proteins at 100 nM for 24 hours", "value": "did not differ"}]}
